Earlier results on two substances are cited in PMC11386291.

The target of data set [1] is MKK6 D-motif D-motif (Homo sapiens) (UniProt P52564).
The target in data set [2] is MKK4 D-motif D-motif (Homo sapiens) (UniProt P45985).

With p38α (from UniProt Q16539), the dissociation constant (Kd) in data set [1] was 7.5 µM.

In the case of JNK1 (from UniProt P45983), the Kd in data set [2] is 3.5 µM.
